In experiment [1] the target is T1, Influenza A MP54 (influenza M protein) peptide on HLA-DRA*01:01 / HLA-DRB1*04:01 (human).
T1 peptide: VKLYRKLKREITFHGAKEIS
Briefly: proliferation.

Experiment [2] deals with T2, GAD65 peptide on HLA-DRA*01:01 / HLA-DRB1*04:01 (human).
T2 peptide: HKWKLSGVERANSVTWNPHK
Briefly: proliferation.

Experiment [3] addresses T1, Influenza A MP54 (influenza M protein) …. As to the kind of experiment: activation reporter or marker.

The results in this text go back to publication PMC11176301 (2024).

B1: Clone 81 (TCR)
alpha TRAV29DV5 TRAJ45 CDR3: CAASRYSGGGADGLTF
beta TRBV12-4 TRBJ1-1 CDR3: CASSPQGGNTEAFF
For the molecule B1, the binding result in experiment [1] and in experiment [2] was “recognises” each time.

B2: P196-1 (TCR)
alpha TRAV29DV5 TRAJ45 CDR3: CAASRYSGGGADGLTF
beta TRBV12-4 TRBJ1-1 CDR3: CASSLQGGNTEAFF
For the molecule B2, the binding result in experiment [2] and in experiment [3] was “recognises” in each case.

B3: Clone 566 (TCR)
alpha TRAV29DV5 TRAJ45 CDR3: CAASRYSGGGADGLTF
beta TRBV12-4 TRBJ1-1 CDR3: CASSVQGGNTEAFF
Take B3: the binding result in experiment [1] and in experiment [2] was “recognises” each time.
